According to US20120009181A1, “Folate Receptor 1 Antibodies and Immunoconjugates and Uses Thereof” (published 2012):
One block for each binder: values may come before it.

How the values were obtained:
[1] = target: human folate receptor 1 (FOLR1) (human); assay: cell-based or functional assay
[2] = target: human folate receptor 1 (FOLR1) (human); assay: column head 'Apparent affinity (nM)'; method not restated (analyzed as described above: flow cytometry on FOLR1-expressing cells)
[3] = target: human folate receptor 1 (FOLR1) (human); assay: cell-based or functional assay; remark: listed apart in the source
[4] = target: human folate receptor 1 (FOLR1) (human); assay: cell-based or functional assay; remark: listed apart in the source

human folate receptor 1 (FOLR1) (human), sequence (chain, as listed by the source limits assumed): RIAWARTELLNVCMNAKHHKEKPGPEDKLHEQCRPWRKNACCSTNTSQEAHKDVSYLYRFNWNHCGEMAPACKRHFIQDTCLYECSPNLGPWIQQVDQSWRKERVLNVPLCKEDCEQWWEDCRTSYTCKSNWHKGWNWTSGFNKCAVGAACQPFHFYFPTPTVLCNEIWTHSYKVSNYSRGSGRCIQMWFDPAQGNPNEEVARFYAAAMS

- Kd [2]: 0.15 nM
B2: huFR1-65 (antibody, V domains shown)
VH: QVQLVQSGAEVAKPGASVKMSCKASGYTFTSYTMHWVKQRPGQGLAWIGYINPISGYTNYNQKFQGKATLTADKSSSTAYMQLNSLTSEDSAVYYCASGGAYGRKPMDYWGQGTSVTVSS
VL: EIVMTQSPATMSTSPGDRVSVTCKASQNVGPNVAWYQQKPGQSPRALIYSASYRYSGVPARFTGSGSGTDFTLTISNMQSEDLAEYFCQQYNSYPYTFGQGTKLEIKR

- huAb-smcc-DM1 activity on KB in vitro [3]: 0.1 nM
B3: huFR1-65-SMCC-DM1 (antibody, V domains shown)
VH: QVQLVQSGAEVAKPGASVKMSCKASGYTFTSYTMHWVKQRPGQGLAWIGYINPISGYTNYNQKFQGKATLTADKSSSTAYMQLNSLTSEDSAVYYCASGGAYGRKPMDYWGQGTSVTVSS
VL: EIVMTQSPATMSTSPGDRVSVTCKASQNVGPNVAWYQQKPGQSPRALIYSASYRYSGVPARFTGSGSGTDFTLTISNMQSEDLAEYFCQQYNSYPYTFGQGTKLEIKR
modifications: maytansinoid DM1 linked to the antibody through the SMCC linker; drug load and attachment residues not stated

- Kd [2]: 0.06 nM
B4: huMov19 (antibody, V domains shown)
VH: QVQLVQSGAEVVKPGASVKISCKASGYTFTGYFMNWVKQSPGQSLEWIGRIHPYDGDTFYNQKFQGKATLTVDKSSNTAHMELLSLTSEDFAVYYCTRYDGSRAMDYWGQGTTVTVSS
VL: DIVLTQSPLSLAVSLGQPAIISCKASQSVSFAGTSLMHWYHQKPGQQPRLLIYRASNLEAGVPDRFSGSGSKTDFTLNISPVEAEDAATYYCQQSREYPYTFGGGTKLEIKR

- huAb-smcc-DM1 activity on KB in vitro [3]: 0.1 nM
B11: huFR1-57-SMCC-DM1 (antibody, V domains shown)
VH: EVQLVESGGGLVQPGGSRRLSCAASGFTFSSFGMHWVRQAPGKGLEWVAYISSGSSTISYADSVKGRFTISRDNSKKTLLLQMTSLRAEDTAMYYCAREAYGSSMEYWGQGTLVTVSS
VL: EIVLTQSPATLSVTPGDRVSLSCRASQNINNNLHWYQQKPGQSPRLLIKYVSQSVSGIPDRFSGSGSGTDFTLSISSVEPEDFGMYFCQQSNSWPHYTFGQGTKLEIKR
modifications: maytansinoid DM1 linked to the antibody through the SMCC linker; drug load and attachment residues not stated

More lines, now with the values behind:

B1: huFR1-21 (antibody, V domains shown)
VH: EVQLVESGGDVVKPGGSLKLSCAASGFTFSSYGMSWVRQTPGKGLECVATISSGGSYTYYSPGFQGRFTISRDKSKNTLYLQMSSLKAEDTAMYYCARDGEGGLYAMDYWGQGTSVTVSS
VL: DIQMTQSSSSLSVSVGGRVTITCKASDHINNWLAWYQQKPGKAPKLLISGATSLETGVPSRFSGSGSGKDYTLSISSLQPEDVATYYCQQYWSTPFTFGQGTKLEIKR
- EC50 of ADCC activity on IGROV-1 cells [1]: 0.11 ng/mL

B5: huMov19-SPP-DM1 (antibody, V domains shown)
VH: QVQLVQSGAEVVKPGASVKISCKASGYTFTGYFMNWVKQSPGQSLEWIGRIHPYDGDTFYNQKFQGKATLTVDKSSNTAHMELLSLTSEDFAVYYCTRYDGSRAMDYWGQGTTVTVSS
VL: DIVLTQSPLSLAVSLGQPAIISCKASQSVSFAGTSLMHWYHQKPGQQPRLLIYRASNLEAGVPDRFSGSGSKTDFTLTISPVEAEDAATYYCQQSREYPYTFGGGTKLEIKR
modifications: maytansinoid DM1 linked to the antibody through the SPP linker, 3.5-4 DM1 per antibody; attachment residues not stated
- IC50, nM (n = 3), Ab-based; in vitro cytotoxicity on IGROV-1 cells [4]: 0.1 nM
- IC50, nM (n = 3), Ab-based; in vitro cytotoxicity on JEG-3 cells [4]: 0.2 nM
- IC50, nM (n = 3), Ab-based; in vitro cytotoxicity on KB cells [4]: 0.1 nM

B6: huFR1-48 (antibody, V domains shown)
VH: QVQLVQSGAEVAKPGASVKLSCKASGYTFTNYWMQWIKQRPGQGLEWIGAIYPGNGDSRYTQKFQGKATLTADKSSSTAYMQVSSLTSEDSAVYYCARRDGNYAAYWGQGTLVTVSA
VL: DIQMTQSPSSLSVSVGERVTITCRASENIYSNLAWYQQKPGKSPKLLVYAATNLADGVPSRFSGSESGTDYSLKINSLQPEDFGSYYCQHFWASPYTFGQGTKLEIKR
- Kd [2]: 0.13 nM

B7: huFR1-49 (antibody, V domains shown)
VH: QVQLQQSGAVVAKPGASVKMSCKASGYTFTNYWMYWIKQRPGQGLELIGAIYPGNSDTTYNQKFQGKATLTAVTSANTVYMEVSSLTSEDSAVYYCTKRHDYGAMDYWGQGTSVTVSS
VL: DIQMTQSPSSLSVSVGERVTITCRASENIYTNLAWYQQKPGKSPKLLVYTASNLADGVPSRFSGSGSGTDYSLKINSLQPEDFGTYYCQHFWVSPYTFGQGTKLEIKR
- Kd [2]: 0.08 nM

B8: huFR1-48-SMCC-DM1 (antibody, V domains shown)
VH: QVQLVQSGAEVAKPGASVKLSCKASGYTFTNYWMQWIKQRPGQGLEWIGAIYPGNGDSRYTQKFQGKATLTADKSSSTAYMQVSSLTSEDSAVYYCARRDGNYAAYWGQGTLVTVSA
VL: DIQMTQSPSSLSVSVGERVTITCRASENIYSNLAWYQQKPGKSPKLLVYAATNLADGVPSRFSGSESGTDYSLKINSLQPEDFGSYYCQHFWASPYTFGQGTKLEIKR
modifications: maytansinoid DM1 linked to the antibody through the SMCC linker; drug load and attachment residues not stated
- huAb-smcc-DM1 activity on KB in vitro [3]: 0.05 nM

B9: huFR1-49-SMCC-DM1 (antibody, V domains shown)
VH: QVQLQQSGAVVAKPGASVKMSCKASGYTFTNYWMYWIKQRPGQGLELIGAIYPGNSDTTYNQKFQGKATLTAVTSANTVYMEVSSLTSEDSAVYYCTKRHDYGAMDYWGQGTSVTVSS
VL: DIQMTQSPSSLSVSVGERVTITCRASENIYTNLAWYQQKPGKSPKLLVYTASNLADGVPSRFSGSGSGTDYSLKINSLQPEDFGTYYCQHFWVSPYTFGQGTKLEIKR
modifications: maytansinoid DM1 linked to the antibody through the SMCC linker; drug load and attachment residues not stated
- huAb-smcc-DM1 activity on KB in vitro [3]: 0.1 nM

B10: huFR1-57 (antibody, V domains shown)
VH: EVQLVESGGGLVQPGGSRRLSCAASGFTFSSFGMHWVRQAPGKGLEWVAYISSGSSTISYADSVKGRFTISRDNSKKTLLLQMTSLRAEDTAMYYCAREAYGSSMEYWGQGTLVTVSS
VL: EIVLTQSPATLSVTPGDRVSLSCRASQNINNNLHWYQQKPGQSPRLLIKYVSQSVSGIPDRFSGSGSGTDFTLSISSVEPEDFGMYFCQQSNSWPHYTFGQGTKLEIKR
- Kd [2]: 0.14 nM
